Molecular target: T1, CD16 on human natural killer (NK) cells (human, UniProt P08637 17-254)
T1 construct: whole, on cells
Assay: flow cytometry on human NK cells, BiKE-containing supernatant, PE anti-V5 detection

T1 sequence (P08637 17-254): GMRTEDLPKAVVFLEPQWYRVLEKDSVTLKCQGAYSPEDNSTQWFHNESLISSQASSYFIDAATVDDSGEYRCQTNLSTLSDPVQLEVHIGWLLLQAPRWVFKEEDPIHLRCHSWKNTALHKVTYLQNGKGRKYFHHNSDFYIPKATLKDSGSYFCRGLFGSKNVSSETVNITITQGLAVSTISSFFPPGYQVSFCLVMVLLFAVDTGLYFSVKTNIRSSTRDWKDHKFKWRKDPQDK

B1: Bi-specific Natural Killer and Neutrophil engager (BiKE), CD138-CD16, secreted from MYXV-BiKE-infected cells, with C-terminal V5 tag (bispecific antibody)
chain: DIQMTQSTSSLSASLGDRVTISCSASQGINNYLNWYQQKPDGTVELLIYYTSTLQSGVPSRFSGSGSGTDYSLTISNLEPEDIGTYYCQQYSKLPRTFGGGTKLEIKGGGGSGGGGSGGGGSSQVQLQQSGSELMMPGASVKISCKATGYTFSNYWIEWVKQRPGHGLEWIGEILPGTGRTIYNEKFKGKATFTADISSNTVQMQLSSLTSEDSAVYYCARRDYYGNFYYAMDYWGQGTSVTVSSGGGGSGGGGSQVTLKESGPGILQPSQTLSLTCSFSGFSLRTSGMGVGWIRQPSGKGLEWLAHIWWDDDKRYNPALKSRLTISKDTSSNQVFLKIASVDTADTATYYCAQINPAWFAYWGQGTLVTVSAGGGGSGGGGSGGGGSDTVLTQSPASLAVSLGQRATISCKASQSVDFDGDSFMNWYQQKPGQPPKLLIYTTSNLESGIPARFSASGSGTDFTLNIHPVEEEDTATYYCQQSNEDPYTFGGGTKLEIKGKPIPNPLLGLDST
notes: Tested as secreted protein in supernatants of MYXV-BiKE-infected RK13 or Vero cells and detected through its V5 tag; Concentration was not determined; also called huBiKE; CD138-CD16 BiKE
B1: binds.

Reference: US20240093158A1 (ARIZONA BOARD OF REGENTS ON BEHALF OF ARIZONA STATE …, published 2024)
